Data: patent US20120058906A1

Assays:
[1] = biological target: rHuman HGF R/c-MET/Fc Chimera, CF (R&D Systems Cat#358-MT/CF) (human) (UniProt P08581); test: MSD ECL multi-spot plate; Fab 57.5 nM; blank spot 954
[2] = biological target: rHuman CD44/Fc Chimera, CF (R&D Systems Cat#3660-CD) (human) (UniProt P16070); test: as above
[3] = biological target: rHuman EGF R/Fc Chimera, CF (R&D Systems Cat#344-ER) (human) (UniProt P00533); test: as above
[4] = biological target: rHuman IGF-1 sR (IGF-1 sR), CF (R&D Systems Cat#391-GR) (human) (UniProt P08069); test: as above
[5] = biological target: rHuman ErbB2/Fc Chimera, CF (R&D Systems Cat#1129-ER) (human) (UniProt P04626); test: as above
[6] = biological target: rHuman Erythropoietin R/Fc Chimera, CF (R&D Systems Cat#963-ER) (human) (UniProt P19235); test: as above
[7] = biological target: rHuman HGF R/c-MET/Fc Chimera, CF (R&D Systems Cat#358-MT/CF) (human) (UniProt P08581); test: MSD ECL multi-spot plate; Fab 920 nM; blank spot 4082
[8] = biological target: rHuman CD44/Fc Chimera, CF (R&D Systems Cat#3660-CD) (human) (UniProt P16070); test: as above
[9] = biological target: rHuman EGF R/Fc Chimera, CF (R&D Systems Cat#344-ER) (human) (UniProt P00533); test: as above
[10] = biological target: rHuman IGF-1 sR (IGF-1 sR), CF (R&D Systems Cat#391-GR) (human) (UniProt P08069); test: as above
[11] = biological target: rHuman ErbB2/Fc Chimera, CF (R&D Systems Cat#1129-ER) (human) (UniProt P04626); test: as above
[12] = biological target: rHuman Erythropoietin R/Fc Chimera, CF (R&D Systems Cat#963-ER) (human) (UniProt P19235); test: as above
[13] = biological target: rHuman EGF R/Fc Chimera, CF (R&D Systems Cat#344-ER) (human) (UniProt P00533); test: MSD ECL multi-spot assay, antigen spotted on plate, Fab 0.93 uM; blank spot 4760
[14] = biological target: rHuman HGF R/c-MET/Fc Chimera, CF (R&D Systems Cat#358-MT/CF) (human) (UniProt P08581); test: MSD ECL multi-spot plate; Fab 230 nM; blank spot 1656
[15] = biological target: rHuman CD44/Fc Chimera, CF (R&D Systems Cat#3660-CD) (human) (UniProt P16070); test: as above
[16] = biological target: rHuman EGF R/Fc Chimera, CF (R&D Systems Cat#344-ER) (human) (UniProt P00533); test: as above
[17] = biological target: rHuman IGF-1 sR (IGF-1 sR), CF (R&D Systems Cat#391-GR) (human) (UniProt P08069); test: as above
[18] = biological target: rHuman ErbB2/Fc Chimera, CF (R&D Systems Cat#1129-ER) (human) (UniProt P04626); test: as above
[19] = biological target: rHuman Erythropoietin R/Fc Chimera, CF (R&D Systems Cat#963-ER) (human) (UniProt P19235); test: as above
[20] = biological target: rHuman HGF R/c-MET/Fc Chimera, CF (R&D Systems Cat#358-MT/CF) (human) (UniProt P08581); test: MSD ECL multi-spot plate; Fab 14.375 nM; blank spot 738
[21] = biological target: rHuman CD44/Fc Chimera, CF (R&D Systems Cat#3660-CD) (human) (UniProt P16070); test: as above
[22] = biological target: rHuman EGF R/Fc Chimera, CF (R&D Systems Cat#344-ER) (human) (UniProt P00533); test: as above
[23] = biological target: rHuman IGF-1 sR (IGF-1 sR), CF (R&D Systems Cat#391-GR) (human) (UniProt P08069); test: as above
[24] = biological target: rHuman ErbB2/Fc Chimera, CF (R&D Systems Cat#1129-ER) (human) (UniProt P04626); test: as above
[25] = biological target: rHuman Erythropoietin R/Fc Chimera, CF (R&D Systems Cat#963-ER) (human) (UniProt P19235); test: as above

rHuman Erythropoietin R/Fc Chimera, CF (R&D Systems Cat#963-ER) (human), sequence (P19235 25-250, change not shown): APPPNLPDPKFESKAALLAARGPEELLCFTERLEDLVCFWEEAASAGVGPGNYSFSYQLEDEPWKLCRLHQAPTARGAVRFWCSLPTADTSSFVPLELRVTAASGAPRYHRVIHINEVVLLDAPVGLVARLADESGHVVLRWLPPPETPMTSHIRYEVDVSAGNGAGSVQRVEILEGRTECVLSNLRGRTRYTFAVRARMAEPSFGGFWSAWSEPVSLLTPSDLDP

ECL signal [1]: 2300 ECL signal
ECL signal [2]: 2310 ECL signal
ECL signal [3]: 3860 ECL signal
ECL signal [4]: 2830 ECL signal
ECL signal [5]: 2450 ECL signal
ECL signal [6]: 4040 ECL signal
ECL signal [7]: 10700 ECL signal
ECL signal [8]: 9700 ECL signal
ECL signal [9]: 13400 ECL signal
ECL signal [10]: 10200 ECL signal
ECL signal [11]: 10900 ECL signal
ECL signal [12]: 16400 ECL signal
ECL signal [13]: 15600
ECL signal [14]: 3930 ECL signal
ECL signal [15]: 3820 ECL signal
ECL signal [16]: 5720 ECL signal
ECL signal [17]: 4760 ECL signal
ECL signal [18]: 4080 ECL signal
ECL signal [19]: 6950 ECL signal
ECL signal [20]: 1600 ECL signal
ECL signal [21]: 1490 ECL signal
ECL signal [22]: 2670 ECL signal
ECL signal [23]: 1750 ECL signal
ECL signal [24]: 1590 ECL signal
ECL signal [25]: 2720 ECL signal
Substance: Fab VH1-46_IGHD3-10*01_IGHJ4*01 & L12_IGKJ1*01
